# Experimental data as given in US20220396819A1, “METHOD FOR PRODUCING PEPTIDE HAVING PHYSIOLOGICAL ACTIVITY, AND PEPTIDE COMPRISING SHORT LINKER” (priority 2019, published 2022).
# Like-named read-outs stand apart in the source and are kept apart here. Positions of bridges follow the written chain, without caps; N, C: chain ends. No end group written: not given here.
# B1: AET-EPO-PAS8 (peptide)
# peptide: AETGGLYACHMGPMTWVCQPLRGAAPAAPAPGGLYACHMGPMTWVCQPLRG
# modifications: disulfide 9-18, 37-46
# B2: AET-EPO-PAS22-PAS600 (peptide)
# peptide: AETGGLYACHMGPMTWVCQPLRGAAPAAPAPAAPAAPAPAAPAAPGGLYACHMGPMTWVCQPLRGAAPAAPAPAAPAAPAPAAPAAPAPAAPAAPAPAAPAAPAPAAPAAPAPAAPAAPAPAAPAAPAPAAPAAPAPAAPAAPAPAAPAAPAPAAPAAPAPAAPAAPAPAAPAAPAPAAPAAPAPAAPAAPAPAAPAAPAPAAPAAPAPAAPAAPAPAAPAAPAPAAPAAPAPAAPAAPAPAAPAAPAPAAPAAPAPAAPAAPAPAAPAAPAPAAPAAPAPAAPAAPAPAAPAAPAPAAPAAPAPAAPAAPAPAAPAAPAPAAPAAPAPAAPAAPAPAAPAAPAPAAPAAPAPAAPAAPAPAAPAAPAPAAPAAPAPAAPAAPAPAAPAAPAPAAPAAPAPAAPAAPAPAAPAAPAPAAPAAPAPAAPAAPAPAAPAAPAPAAPAAPAPAAPAAPAPAAPAAPAPAAPAAPAPAAPAAPAPAAPAAPAPAAPAAPAPAAPAAPAPAAPAAPAPAAPAAPAPAAPAAPAPAAPAAPAPAAPAAPAPAAPAAPAPAAPAAPAPAAPAAPAPAAPAAPAPAAPAAPAPAAPAAPAPAAPAAPAPAAPAAPAPAAPAAPAPAAPAAPAPAAPAAPAPAAPAAPAPAAPAAPAPAAPAAPAPAAPAAPAP
# modifications: two disulfide bonds in the molecule
# B3: AET-EPO-PAS22 (peptide)
# peptide: AETGGLYACHMGPMTWVCQPLRGAAPAAPAPAAPAAPAPAAPAAPGGLYACHMGPMTWVCQPLRG
# modifications: disulfide 9-18, 51-60
# B4: AET-EPO-PAS22-PAS200 (peptide)
# peptide: AETGGLYACHMGPMTWVCQPLRGAAPAAPAPAAPAAPAPAAPAAPGGLYACHMGPMTWVCQPLRGAAPAAPAPAAPAAPAPAAPAAPAPAAPAAPAPAAPAAPAPAAPAAPAPAAPAAPAPAAPAAPAPAAPAAPAPAAPAAPAPAAPAAPAPAAPAAPAPAAPAAPAPAAPAAPAPAAPAAPAPAAPAAPAPAAPAAPAPAAPAAPAPAAPAAPAPAAPAAPAPAAPAAPAPAAPAAPAPAAPAAPAPAAPAAPAPAAPAAPAP
# modifications: two disulfide bonds in the molecule
# B5: rhTPO: recombinant human TPO (rhTPO, Peprotech) (protein)
# chain: SPAPPACDLRVLSKLLRDSHVLHSRLSQCPEVHPLPTPVLLPAVDFSLGEWKTQMEETKAQDILGAVTLLLEGVMAARGQLGPTCLSSLLGQLSGQVRLLLGALQSLLGTQLPPQGRTTAHKDPNAIFLSFQHLLRGKVRFLMLVGGSTLCVRRAPPTTAVPSRTSLVLTLNEL
# How the values were obtained:
# HEL cells [1] = experiment: Thrombopoietin-like activity, tyrosine phosphorylation levels in HEL cells (dot blot); assay type: cell-based, human; settings: for increase in tyrosine phosphorylation levels compared with rhTPO: culture supernatant diluted, 20 minutes, rhTPO 10 to 100 ng/mL, FIG. 41
# Description: The thrombopoietin-like activity of the TPO-PAS dimer peptide was evaluated by quantification of tyrosine phosphorylation levels in HEL cells, a human leukemia-derived blood cell line. 200,000 HEL cells were cultured in RPMI 1640 medium without FBS (Thermo Fisher Scientific) for 24 hours and starved. The cells were stimulated for 20 minutes in RPMI 1640 medium supplemented with 10 to 100 ng/mL recombinant human TPO (rhTPO, Peprotech) or a culture supernatant containing AET-TPO1-PAS8, TPO2-PAS8, or AET-TPO2-PAS8 at a predetermined dilution factor. As a negative control, PBS (Mock group) or a supernatant expressing no peptide (Empty group) by using an empty vector was added, and stimulation was performed for 20 minutes. After removing the medium and washing the cells once with PBS, the cells were lysed by adding 100 μL of Lysis buffer 17 (R&D Systems) supplemented with Protease inhibitor cocktail (Nacalai Tesque). The lysate solution was centrifuged at 14,000 G for 5 minutes to obtain the supernatant as lysate.
# APVDF membrane (Immobilon-P membrane 0.45 m, Merck) was treated with methanol for 1 minute and then with ultrapure water for 5 minutes for hydrophilic treatment. The PVDF membrane was dried, and each cell lysate solution was spotted with a 1 μL pipette and dried. The PVDF membrane was blocked with PVDF Blocking Reagent for Can Get Signal (NOF) at room temperature for 1 hour, and then Can Get Signal Solution 2 (NOF), supplemented with anti-pY antibody-[…] conjugate (Cell Signaling Technology) at 1:5000, was added, followed by an antibody reaction at 4° C. for 24 hours. The membrane was washed 3 times with TBST buffer, Luminata Crescendo Western HRP Substrate (Merck) was added, and a chemiluminescence reaction was carried out. Chemiluminescence was detected using Amersham Imager 600 (GE Healthcare). The luminescence intensity of the detected dots was quantified by ImageJ.
# HEL cells [2] = experiment: Signal characteristics, Proteome Profiler Human Phospho-Kinase Array Kit, HEL cells; assay type: cell-based; settings: 100 ng/mL rhTPO or culture supernatant 1/100 to 1/1000, 20 minutes, FIG. 43
# Description: The signal characteristics of the TPO-PAS dimer peptide were evaluated using Proteome Profiler Human Phospho-Kinase Array Kit (R&D Systems).
# 1,000,000 HEL cells were cultured in RPMI 1640 medium without FBS (Thermo Fisher Scientific) for 24 hours and starved. The cells were stimulated for 20 minutes in RPMI 1640 medium supplemented with 100 ng/mL recombinant human TPO (rhTPO, Peprotech) or a culture supernatant containing TPO2-PAS8 at a dilution of 1/100 to 1/1000. As a negative control, PBS was added, and stimulation was performed for 20 minutes (Mock group). After removing the medium and washing the cells once with PBS, the cells were lysed by adding 200 μL of Lysis buffer 17 (R&D Systems) supplemented with Protease inhibitor cocktail (Nacalai Tesque). The lysate solution was centrifuged at 14,000 G for 5 minutes to obtain the supernatant as lysate.
# The lysate was analyzed using Proteome Profiler Human Phospho-Kinase Array Kit. Amersham Imager 600 (GE Healthcare) was used to detect chemiluminescence. The chemiluminescence intensity of the dots was quantified using ImageJ. […] The signal pathway stimulated by rhTPO is mainly the JAK2/Stat3,5 pathway, and all of the proteins with increased phosphorylation levels are included in the pathway.
# FGFR = target: T1, FGFR (Homo sapiens, UniProt P11362); experiment: FGFR inhibitory activity, SRE luciferase assay in HEK293E cells stimulated with bFGF; assay type: cell-based; settings: peptide at 10 μM, 0 to 10 ng/mL bFGF, FIG. 3
# T1 construct: endogenous in cells; host or cells: HEK293E
# Description: The inhibitory activity of the FBP monomer peptide chemically synthesized with the FBP-PAS dimer peptide on FGFR was evaluated by luciferase assay. To 25 μL of Opti-MEM medium (Thermo Fisher Scientific), 0.6 μL of Attractene Transfection Reagent (QIAGEN) was added, and the mixture was incubated at room temperature for 5 minutes. To the above mixed solution, a mixed solution of 25 μL of Opti-MEM and 1 μL of SRE reporter vector (QIAGEN) was added, and the mixture was incubated at room temperature for 20 minutes. This mixed solution was added to a 96-well plate, over which 40,000 cell/well HEK293E cells were seeded and incubated overnight in a 5% CO2 incubator at 37° C. […]
# The signal intensities were detected using Dual-Luciferase Reporter Assay System (Promega). […] The luminescence of Firefly luciferase emitted from the cell lysate solution was detected with a plate reader to quantify the activation of the FGFR-Erk-SRE pathway. Subsequently, 50 μL of Glo & Stop reagent solution was added, and after 10 minutes, the luminescence of the internal standard Renilla luciferase was detected to quantify the number of cells. The signal activity of each sample was quantified as SRE activity=(Firefly luciferase luminescence intensity)/(Renilla luciferase luminescence intensity). […]
# Met (HGF receptor) = Met (HGF receptor) (UniProt P08581); experiment: cell-based or functional assay
# EpoR [3] = target: T2, EpoR (UniProt P19235 25-508, limits assumed); experiment: cell-based or functional assay
# T2 sequence (looked up): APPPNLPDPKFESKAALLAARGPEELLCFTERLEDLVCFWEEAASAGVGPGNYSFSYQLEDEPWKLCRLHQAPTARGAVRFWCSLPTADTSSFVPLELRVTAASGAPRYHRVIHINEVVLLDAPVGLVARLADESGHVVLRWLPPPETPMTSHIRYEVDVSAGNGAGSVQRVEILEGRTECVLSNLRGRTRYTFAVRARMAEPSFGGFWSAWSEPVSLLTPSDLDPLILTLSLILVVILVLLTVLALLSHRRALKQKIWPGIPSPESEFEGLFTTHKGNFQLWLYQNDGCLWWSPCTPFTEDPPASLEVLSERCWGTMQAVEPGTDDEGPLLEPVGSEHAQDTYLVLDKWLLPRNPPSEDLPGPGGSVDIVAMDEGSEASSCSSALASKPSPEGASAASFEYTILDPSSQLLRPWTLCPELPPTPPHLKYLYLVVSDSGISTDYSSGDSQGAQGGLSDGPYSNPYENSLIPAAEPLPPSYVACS
# EpoR [4] = target: T2, EpoR; experiment: cell-based or functional assay; remark: listed apart in the source
# HEL cells [5] = experiment: Thrombopoietin-like activity, CREB phosphorylation levels in HEL cells (Phospho-CREB (Ser133) ELISA); assay type: cell-based, human; settings: dimer peptide 20-40 ng/mL or rhTPO 100 ng/mL, 20 minutes, Mock = PBS, FIG. 90
# Description: The thrombopoietin-like activity of the TPO-PAS dimer peptide variant was evaluated by quantification of CREB phosphorylation levels in HEL cells, a human leukemia-derived blood cell line. 200,000 HEL cells were cultured in RPMI 1640 medium without FBS (Thermo Fisher Scientific) for 24 hours and starved. The cells were stimulated for 20 minutes in RPMI 1640 medium supplemented with 100 ng/mL recombinant human TPO (rhTPO, Peprotech) or a culture supernatant containing each dimer peptide of TPO2-PAS8, TPO2-PAS49, TPO2-PAS100, or TPO2-GS8 diluted to a final concentration of 20-40 ng/mL. As a negative control, PBS was added, and stimulation was performed for 20 minutes (Mock group). After removing the medium and washing the cells once with PBS, the cells were lysed by adding 100 μL of Lysis buffer 17 (R&D Systems) supplemented with Protease inhibitor cocktail (Nacalai Tesque). The lysate solution was centrifuged at 14,000 G for 5 minutes to obtain the supernatant as lysate. Note that TPO2-PAS8 was obtained according to the method described in Example 23.
# Phospho-CREB (Ser133) and Total CREB ELISA kit (RayBio) were used to quantify phosphorylated CREB (pCREB) levels in the lysates. […] Phosphorylation levels were quantified by adding 50 μL of Stop solution and measuring the absorbance at a wavelength of 450 nm on a microplate.
# T1 sequence (P11362 22-822): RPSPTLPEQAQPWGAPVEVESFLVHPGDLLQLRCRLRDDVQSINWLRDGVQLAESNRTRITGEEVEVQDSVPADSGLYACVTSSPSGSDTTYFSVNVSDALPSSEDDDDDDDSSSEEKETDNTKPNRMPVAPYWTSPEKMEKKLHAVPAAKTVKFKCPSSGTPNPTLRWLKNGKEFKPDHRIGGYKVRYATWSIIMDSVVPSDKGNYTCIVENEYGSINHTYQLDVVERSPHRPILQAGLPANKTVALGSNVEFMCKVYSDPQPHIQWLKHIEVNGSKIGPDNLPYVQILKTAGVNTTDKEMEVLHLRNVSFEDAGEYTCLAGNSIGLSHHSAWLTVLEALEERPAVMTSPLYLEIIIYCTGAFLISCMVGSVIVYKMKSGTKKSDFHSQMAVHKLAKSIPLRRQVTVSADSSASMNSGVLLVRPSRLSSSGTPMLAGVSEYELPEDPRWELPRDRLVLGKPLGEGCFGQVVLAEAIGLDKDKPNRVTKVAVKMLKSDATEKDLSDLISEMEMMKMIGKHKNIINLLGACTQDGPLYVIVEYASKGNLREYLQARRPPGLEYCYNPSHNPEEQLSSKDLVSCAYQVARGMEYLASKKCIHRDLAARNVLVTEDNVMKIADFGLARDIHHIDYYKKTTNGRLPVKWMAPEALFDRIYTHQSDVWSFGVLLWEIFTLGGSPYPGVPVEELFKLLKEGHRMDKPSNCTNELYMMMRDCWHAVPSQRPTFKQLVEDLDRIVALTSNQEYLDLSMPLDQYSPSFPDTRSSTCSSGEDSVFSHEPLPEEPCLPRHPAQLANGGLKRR
# Met (HGF receptor), sequence (P08581 25-1390 limits assumed): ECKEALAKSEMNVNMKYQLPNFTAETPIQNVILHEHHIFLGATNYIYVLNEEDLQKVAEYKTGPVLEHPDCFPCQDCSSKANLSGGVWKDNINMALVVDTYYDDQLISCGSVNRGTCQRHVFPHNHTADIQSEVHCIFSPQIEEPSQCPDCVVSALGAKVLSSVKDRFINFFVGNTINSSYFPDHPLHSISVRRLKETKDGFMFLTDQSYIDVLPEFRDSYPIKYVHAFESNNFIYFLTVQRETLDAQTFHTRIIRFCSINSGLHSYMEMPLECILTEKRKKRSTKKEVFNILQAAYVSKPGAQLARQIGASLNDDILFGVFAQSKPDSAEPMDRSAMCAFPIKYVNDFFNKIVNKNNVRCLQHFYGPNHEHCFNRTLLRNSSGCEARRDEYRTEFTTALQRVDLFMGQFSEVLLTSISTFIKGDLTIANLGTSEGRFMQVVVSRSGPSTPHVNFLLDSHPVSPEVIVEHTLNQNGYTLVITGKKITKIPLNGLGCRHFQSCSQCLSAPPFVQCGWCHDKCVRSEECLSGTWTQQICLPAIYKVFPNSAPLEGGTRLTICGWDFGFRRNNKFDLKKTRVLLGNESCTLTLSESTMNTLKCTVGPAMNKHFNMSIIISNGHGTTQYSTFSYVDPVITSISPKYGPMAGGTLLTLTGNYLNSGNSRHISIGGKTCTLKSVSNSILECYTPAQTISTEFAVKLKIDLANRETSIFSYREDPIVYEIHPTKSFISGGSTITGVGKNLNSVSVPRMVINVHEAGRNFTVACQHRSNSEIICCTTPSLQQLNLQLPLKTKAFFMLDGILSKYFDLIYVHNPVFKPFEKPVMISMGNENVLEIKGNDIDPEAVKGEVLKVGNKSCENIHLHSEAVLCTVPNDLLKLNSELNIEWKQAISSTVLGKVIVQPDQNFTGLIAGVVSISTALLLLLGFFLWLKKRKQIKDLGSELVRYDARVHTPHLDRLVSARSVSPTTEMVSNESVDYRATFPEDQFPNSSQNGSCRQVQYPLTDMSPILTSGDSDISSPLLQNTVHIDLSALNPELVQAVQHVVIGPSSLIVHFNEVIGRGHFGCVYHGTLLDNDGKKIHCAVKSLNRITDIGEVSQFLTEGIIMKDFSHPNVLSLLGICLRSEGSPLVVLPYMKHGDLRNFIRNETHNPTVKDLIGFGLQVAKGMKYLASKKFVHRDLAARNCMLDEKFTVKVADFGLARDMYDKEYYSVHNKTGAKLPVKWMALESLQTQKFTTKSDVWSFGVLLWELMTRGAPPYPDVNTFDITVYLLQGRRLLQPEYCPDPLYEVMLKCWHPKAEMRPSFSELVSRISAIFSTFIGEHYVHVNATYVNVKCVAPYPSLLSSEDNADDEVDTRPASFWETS
molecule,measurement,setting,value
AETIEGPTLRQWLAARAAAPAAPAPIEGPTLRQWLAARA (AET-TPO1-PAS8),increase in tyrosine phosphorylation levels compared with rhTPO,HEL cells [1],equal to or higher than that of rhTPO
"GGCADGPTLREWISFCGGAAPAAPAPGGCADGPTLREWISFCGG (disulfide 3-16, 29-42) [TPO2-PAS8]",luminescence intensity (HEL cell activation ability) compared with rhTPO,"HEL cells [1]; culture supernatant 1/100 to 1/10000 dilution, FIG. 42",equal to or higher than that of the 100 ng/mL rhTPO stimulation group
same,increase in tyrosine phosphorylation levels compared with rhTPO,HEL cells [1],equal to or higher than that of rhTPO
same,phosphorylation levels of signal proteins compared with PBS (Mock group),HEL cells [2],"increased in phosphorylation levels of Erk, CREB, Stat3, Stat5a, and Stat5b"
"RPGCGPRKPRTPKKCGSHGAAPAAPAPAAPAAPAPAAPAGRPGCGPRKPRTPKKCGSH (disulfide 4-15, 44-55) [FBP-PAS]",inhibitory activity on FGFR (relative receptor activity),FGFR,higher inhibitory activity than the FBP monomer peptide
recombinant human HGF (from UniProt P14210 32-728) (ligand),rate of wound healing of HuCCT1 cells (33 ng/mL HGF),Met (HGF receptor),1.6 times
B1,EC50,EpoR [3],0.19 ng/mL
B2,EC50,EpoR [4],0.32 ng/mL
B3,EC50,EpoR [3],0.34 ng/mL
B4,EC50,EpoR [4],0.85 ng/mL
B5,phosphorylation levels of signal proteins compared with PBS (Mock group),HEL cells [2],"increased in phosphorylation levels of Erk, CREB, Stat3, Stat5a, and Stat5b"
same,pCREB level (relative CREB phosphorylation level),HEL cells [5],143%
GGLYACHMGPMTWVCQPLRG [monomer peptide EMP35],EC50,EpoR [3],110 ng/mL
